Laboratory results published in the supplement of paper PMC9170038.

Tested on: MS2 coat protein
Assay: apparent KD of MS2 coat protein; designed switch direction (-1 OFF switch, 1 ON switch): -1; higher = weaker reporter binding
Outline: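 Each step of the titration lasted 0.8–1.5 h at the lowest concentration and 10–20 min at the highest. The protein, SNAP-549-labelled MS2 coat protein, went from 0.7 or 1.5 nM doubling to 3 µM over RNA switches transcribed on Illumina chips by stalled E. coli RNA polymerase. Normalised cluster fluorescence was curve-fitted, and the per-design median over clusters is given as apparent KD.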

[1] = Eterna round: R95, input ligand: FMN 200 uM
[2] = Eterna round: R95, input ligand: microRNA oligo, concentration not stated
[3] = Eterna round: R95, input ligand: none
[4] = input ligand: microRNA oligo, concentration not stated

Sequence | apparent KD of MS2 coat protein [2] [nM] | apparent KD of MS2 coat protein (input ligand: FMN 200 uM) [nM] | apparent KD of MS2 coat protein (input ligand: none) [nM] | other results
UUUCGGCGGACCGUGGCUUUUUGCUCGUCUUAUGCUUCGACAUGAGGAUCACCCAUGUGGUGGUGGUCCGUUGUUGU [Grok-var2-12 mod JAL] (puzzle: Sensor v3, turn-off variant 2) | 20.3 |  |  | apparent KD of MS2 coat protein [1]: 29.9 nM; apparent KD of MS2 coat protein [3]: 48.9 nM
UUUCUUCAUAUCACAUGAGGAUCACCCAUGUUAUUCAUCGCGUAGGAUAUCGAGAUUUUUUUUUACGAGAAGGACGUAUUGAUA [JR_ExcNG3_Sub073] (Eterna round: R96, puzzle: Exclusion NG 3) |  | 49 | 52.2 | apparent KD of MS2 coat protein [4]: 51.6 nM
UUUGAAUAAGUGAGGAUAUACUGUUAGUAUUGAUUGUAGAAGGUACAUGAGGAUCACCCAUGUUUAGUAUUUAU [JR_BME4_Sub038] (puzzle: Brourd's mod of Exclusion 4) | 15.6 |  |  | 
UUUGCAAGCUUUAGAUCCCACAUGAGGAUCACCCAUGUUGCUGCCGUGAGGUAGCAUUUAACUAAUGCUCGUCUUAU [JL TOV1 3.48] (Eterna round: R97, puzzle: Sensor, turn-off variant 1) |  | 109 | 169 | 
UUUGGGUCAGGAUAUUGUUAGUUUAGUUGUUUGUAUUAGUUCGAGAAGGGACAUGAGGAUCACCCAUGUGGUUU [Ex4 #78] (Eterna round: R97, puzzle: Exclusion 4) |  | 81.4 | 85.3 | 
UUUGUAUAUGAAGGAUAUACUUAACAUGAGGAUCACCCAUGUGGUGUUGUGAGUGAGUGAGUUUAGUAGAAGGUCAAGUAUUUU [JMF's solution 50] (Eterna round: R96, puzzle: Exclusion NG 2) |  | 403 | 367 | apparent KD of MS2 coat protein [4]: 298 nM
UUUGUCAGCGUCGAAGUUUACAUGAGGAUCACCCAUGUGAUCAACACAGGCAUAUAAUUAGUAAUGAGUUCGUCUUC [Eternabot (L2) Solution 40] (Eterna round: R97, puzzle: Sensor, turn-off variant 1) |  | 24.9 | 30.2 | 
UUUGUUUUGGUAGGAUAUACUUUUAAUUUCUCUUUCCUUACAUGAGGAUCACCCAUGUUUACAUUGUAGAAGGACCACUUUGUU [JR_ExcNG2_Sub050] (Eterna round: R96, puzzle: Exclusion NG 2) |  |  |  | apparent KD of MS2 coat protein [4]: 15.9 nM
UUUUAACAUGAGGAUCACCCAUGUCAGGAUAUGCUAUUUUUUUUUUUUUUUUUUUUUUGCAGAAGGGACAUUUU [My solution] (puzzle: Exclusion 1) | 29.4 |  |  | apparent KD of MS2 coat protein [1]: 78.5 nM; apparent KD of MS2 coat protein [3]: 55.7 nM
UUUUAACAUGAGGAUCACCCAUGUGAGGAUAUCGAAAUUUAUAUUAAUAUUUAUUUAUCGAGAAGGCACAUUUU [JMF 64] (puzzle: Exclusion 1) | 120 |  |  | 
UUUUAACAUGAGGAUCACCCAUGUGAGGAUAUCGAAAUUUAUAUUAAUAUUUUUAUUACGAGAAGGCACAUUUU [JMF 74] (puzzle: Exclusion 1) | 70.5 |  |  | 
UUUUAACAUGAGGAUCACCCAUGUGAGGAUAUCGAAAUUUAUAUUUAUAUUAAUUUUACGAGAAGGCACAUUUU [JMF 90] (puzzle: Exclusion 1) | 120 |  |  | 
UUUUAACAUGAGGAUCACCCAUGUGAGGAUAUCGAAAUUUAUAUUUAUAUUAAUUUUUCGAGAAGGCACAUUUU [JMF 89] (puzzle: Exclusion 1) | 177 |  |  | 
UUUUAACAUGAGGAUCACCCAUGUGAGGAUAUCGAAAUUUAUAUUUAUAUUUAUAAUUCGAGAAGGCACAUUUU [JMF 93] (puzzle: Exclusion 1) | 181 |  |  | 
UUUUAACAUGAGGAUCACCCAUGUGAGGAUAUCGAAAUUUAUAUUUAUAUUUAUAUAACGAGAAGGCACAUUUU [JMF 95] (puzzle: Exclusion 1) | 68.3 |  |  | 
UUUUAACAUGAGGAUCACCCAUGUGAGGAUAUCGAAAUUUAUAUUUAUAUUUAUUAAUCGAGAAGGCACAUUUU [JMF 100] (puzzle: Exclusion 1) | 121 |  |  | 
UUUUAACAUGAGGAUCACCCAUGUGAGGAUAUCGUAUUUUUUAUUAAUAUUAAUAAAACGAGAAGGCACAUUUU [JMF 17] (Eterna round: R96, puzzle: Exclusion 1) |  | 96.9 | 65.5 | apparent KD of MS2 coat protein [4]: 51.4 nM
UUUUAACAUGAGGAUCACCCAUGUGAGGAUAUCGUAUUUUUUAUUAAUAUUAAUAAAACGAGAAGGCACAUUUU [JMF 17] (puzzle: Exclusion 1) | 86.1 |  |  | 
UUUUAACAUGAGGAUCACCCAUGUGAGGAUAUGCUAUUUUUUUUUUUUUUUUUUUUUUGCAGAAGGCACAUUUU [My solution] (puzzle: Exclusion 1) | 526 |  |  | apparent KD of MS2 coat protein [1]: 12.5 nM; apparent KD of MS2 coat protein [3]: 26 nM

Sequence | apparent KD of MS2 coat protein [2] [nM] | apparent KD of MS2 coat protein (input ligand: FMN 200 uM) [nM] | apparent KD of MS2 coat protein (input ligand: none) [nM] | other results
UUUUAAUAUGAAGGAUAUACUUAACAUGAGGAUCACCCAUGUGGUGUUGUGAGUGAGUGAGUUUAGUAGAAGGUCAAGUAUUUU [JMF's solution 47] (Eterna round: R96, puzzle: Exclusion NG 2) |  | 703 | 428 | apparent KD of MS2 coat protein [4]: 559 nM
UUUUAAUAUGAAGGAUAUACUUAACAUGAGGAUCACCCAUGUGGUGUUGUGAGUGAGUGAGUUUAGUAGAAGGUCAAUUCUUUU [JMF's solution 89] (Eterna round: R96, puzzle: Exclusion NG 2) |  | 563 | 366 | apparent KD of MS2 coat protein [4]: 442 nM
UUUUACAUGCUGAGAUCCUACAUGAGGAUCACCCAUGUGGUCCGGUGACUUUUGUCACCGGACUUAGCUCGUCUUGU [salish99_S_TOV1_R5_100] (Eterna round: R97, puzzle: Sensor, turn-off variant 1) |  | 191 | 288 | 
UUUUACGGAGGAUAUACAUUUUUUUUAUUAUCCUCAUUAUUACAUGAGGAUCACCCAUGUAGAAGGCCGAUUUU [My Design] (puzzle: Exclusion 2) | 59.1 |  |  | 
UUUUACUGAGGAUAUACAUUUUUUUAUUUAUUUAUAAUAUUACAUGAGGAUCACCCAUGUAGAAGGCAGAUUUU [My Design] (puzzle: Exclusion 2) | 26.7 |  |  | 
UUUUAGAGAGGAUAUAUAAUGUGAAACAUGAGGAUCACCCAUGUAAUAUUAUGGAUGUAAAUAGAAGGCUCAUUUA [JL-ex5-3.04] (puzzle: Exclusion 5) | 36.1 |  |  | apparent KD of MS2 coat protein [1]: 31.9 nM; apparent KD of MS2 coat protein [3]: 35.1 nM
UUUUAGCAAGCUAUUAUUAACAUGAGGAUCACCCAUGUGCAUCCAAAAUUACUUUUAGAUCUUGCUCGUCUUAUAUA [JR_STOV1_v2_Sub084] (Eterna round: R97, puzzle: Sensor, turn-off variant 1) |  | 1260 | 1600 | 
UUUUAGCGAGGAUAUACAUUUUUUUUAUUAUCCUCAUUAUUACAUGAGGAUCACCCAUGUAGAAGGCGCAUUUU [My Design] (puzzle: Exclusion 2) | 48.9 |  |  | 
UUUUAGGGAGGAUAUACAUUUUUUUUAUUAUCCUCAUUAUUACAUGAGGAUCACCCAUGUAGAAGGCCCAUUUU [My Design] (puzzle: Exclusion 2) | 84 |  |  | 
UUUUAGUAAGGAUAUGAUUAGAUCUACUUCGGUAGAUCUAAUCAGAAGGUACAUGAGGAUCACCCAUGUAGAUU [Mod of Brourd 2 - Jieux - Exclusion 4] (Eterna round: R97, puzzle: Exclusion 4) |  | 24.1 | 18.8 | 
UUUUAUUGCAAGGAUAUGCAAUUUAUUAUUUAUGCAGAAGGUGCUACAUGAGGAUCACCCAUGUUUCUGGGUUU [JR_E6_Sub044] (puzzle: Exclusion 6) | 91.8 |  |  | apparent KD of MS2 coat protein [1]: 253 nM; apparent KD of MS2 coat protein [3]: 86.7 nM
UUUUCUCACGUCAGGAUAUGCUAAAAGGUGACAAGGUAGAAGGGACAUGAGGAUCACCCAUGUGCUUUCAUGAG [Eternabot (L2) Solution 41] (Eterna round: R97, puzzle: Brourd's mod of Exclusion 4) |  | 15.2 | 13.8 | 
UUUUGAAAGUGAGGAUAUGACAUGAGGAUCACCCAUGUAAAGGGAGUUGAAUAUAUAGAAAGAUAUCAGAAGGCACAAAUGUUU [JR_ExcNG2_Sub001] (Eterna round: R96, puzzle: Exclusion NG 2) |  |  |  | apparent KD of MS2 coat protein [4]: 115 nM
UUUUGAUAUGAAGGAUAUACUUAACAUGAGGAUCACCCAUGUGGUGUUGUGAGUGAGUGAGUUUAGUAGAAGGUCAAUUAUUUU [JMF's solution 26] (Eterna round: R96, puzzle: Exclusion NG 2) |  | 470 | 303 | apparent KD of MS2 coat protein [4]: 293 nM
UUUUGGCAUGUAGGAUAUGGGUCCGAUUAGGAUUUAGAAGGACAUGAGGAUCACCCAUGUGCAUUUAAUUGGUCUUUAUUUUUU [EXclNG1-LROPPY14] (Eterna round: R96, puzzle: Exclusion NG 1) |  |  |  | apparent KD of MS2 coat protein [4]: 62.3 nM
UUUUGGCAUGUAGGAUAUGGGUCCGAUUAGGAUUUAGAAGGACAUGAGGAUCACCCAUGUGCCCUUAAUUGGUCUUUUUUUUUU [EXclNG1-LROPPY17] (Eterna round: R96, puzzle: Exclusion NG 1) |  | 55.8 | 44.4 | apparent KD of MS2 coat protein [4]: 35.3 nM
UUUUGGUAAGGAUAUGAAUCGAUCUCGGAAACGAGAUCGAUUCAGAAGGUACAUGAGGAUCACCCAUGUUGAUU [Mod of Brourd 7 - Jieux - Exclusion 4] (Eterna round: R97, puzzle: Exclusion 4) |  | 119 | 26 | 
UUUUUAAAUGAAGGAUAUACUUAACAUGAGGAUCACCCAUGUGGUGUUGUGAGUGAGUGAGUUUAGUAGAAGGUCAAGUAUUUU [JMF's solution 44] (Eterna round: R96, puzzle: Exclusion NG 2) |  | 814 | 392 | apparent KD of MS2 coat protein [4]: 339 nM
